In patent US20210380703A1 (RIGEL PHARMACEUTICALS, published 2021):
Numbering of substitutions follows the chain as printed. Values belong to the binder of their own block, whether it stands above or below them.

Columns and labels:
human ACVR2A = molecular target: T1, human ACVR2A (human, UniProt P27037 20-135, limits assumed); test: ELISA
T1 construct: coated antigen of the initial ELISA; also called activin receptor, type II A
How it was run: (§1)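 mAb binding by ELISA; antigens: hu ACVR2A, mu ACVR2A; pos ctrl biotinylated goat anti-hu kappa LC; neg ctrl hu Fc.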

mouse ACVR2A = molecular target: T2, mouse ACVR2A (mouse, UniProt P27038 20-135, limits assumed); test: ELISA
T2 construct: coated antigen of the initial ELISA
T2 sequence (P27038 20-135 limits assumed): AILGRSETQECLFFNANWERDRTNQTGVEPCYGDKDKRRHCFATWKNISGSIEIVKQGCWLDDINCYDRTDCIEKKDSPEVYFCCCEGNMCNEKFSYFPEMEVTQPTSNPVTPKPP
How it was run: as §1

[1] = molecular target: T3, biotinylated goat anti-human kappa light chain; test: ELISA, positive control
T3 construct: positive control of the ELISA
How it was run: as §1
Also: test concentration or dose not given here.

T1 sequence (P27037 20-135 limits assumed): as the sequence (P27038 20-135 limits assumed) above, with R20K, I73V counted along it

- optical density (human ACVR2A): 3.3 OD
- optical density (mouse ACVR2A): 3.05 OD
- optical density [1]: 3.45 OD
B1: 369_D09 (antibody, V domains shown)
VH: EVQLLESGGGLVQPGGSLRLSCAASGFTFSDYGMNWVRQAPGKGLEWVSNINYNGGYTSYADSVKGRFTISRDNSKNTLYLQMNSLRAEDTAVYYCARGANWHDTALDYWGQGTLVTVSS
VL: DIQMTQSPSSLSASVGDRVTITCRASQSILTYLNWYQQKPGKAPKLLIYAATSRASGVPSRFSGSGSGTDFTLTISSLQPEDFATYYCQQSYDSPLTFGGGTKVEIK
notes: Group III

- optical density (human ACVR2A): 1.24 OD
- optical density (mouse ACVR2A): 1.35 OD
- optical density [1]: 3.08 OD
B2: 371_C05 (antibody, V domains shown)
VH: B1 VH with N35H, S49A, S59G
VL: B1 VL with T31S
notes: Group III

- optical density (human ACVR2A): 2.98 OD
- optical density (mouse ACVR2A): 3.12 OD
- optical density [1]: 3.49 OD
B3: 370_D05 (antibody, V domains shown)
VH: B1 VH with S30D, G33S, T58K, S59G
VL: B1 VL with L30I, L47V, A55H, S94T
notes: Group III

- optical density (human ACVR2A): 3.71 OD
- optical density (mouse ACVR2A): 3.57 OD
- optical density [1]: 3.61 OD
B4: 370_B03 (antibody, V domains shown)
VH: B1 VH with D31S, G33S, S49A, S59G
VL: B1 VL with T31S, L47V, D93N, S94N
notes: Group III

- optical density (human ACVR2A): 2.94 OD
- optical density (mouse ACVR2A): 2.99 OD
- optical density [1]: 3.58 OD
B5: 371_D02 (antibody, V domains shown)
VH: B1 VH with S30D, G33S, S49A, N50G, T58K
VL: B1 VL with L30V
notes: Group III

- optical density (human ACVR2A): 1.63 OD
- optical density (mouse ACVR2A): 1.94 OD
- optical density [1]: 3.48 OD
B6: 371_B03 (antibody, V domains shown)
VH: B1 VH with D31S, N35H, S49A, N50S, A106H
VL: B1 VL with T31S, L33V, A51T, S94N
notes: Group III

- optical density (human ACVR2A): 3.14 OD
- optical density (mouse ACVR2A): 3.17 OD
- optical density [1]: 3.66 OD
B7: 370_D01 (antibody, V domains shown)
VH: B1 VH with D31S, G33S, N50S, S59G
VL: B1 VL with T31S, A55H, D93N, S94T
notes: Group III

- optical density (human ACVR2A): 1.02 OD
- optical density (mouse ACVR2A): 1.29 OD
- optical density [1]: 3.3 OD
B8: 371_D04 (antibody, V domains shown)
VH: B1 VH with S30D, G33S, S49A, N50G, S59G, A106H
VL: B1 VL with L30V, T31S, L33V, R54L, D93E, S94N
notes: Group III

- optical density (human ACVR2A): 2.9 OD
- optical density (mouse ACVR2A): 2.91 OD
- optical density [1]: 3.62 OD
B9: 370_A02 (antibody, V domains shown)
VH: B1 VH with S30D, D31S, S49A, N50G, S59G
VL: B1 VL with L30V, L47V
notes: Group III

- optical density (human ACVR2A): 3 OD
- optical density (mouse ACVR2A): 3.25 OD
- optical density [1]: 3.51 OD
B10: 370_H07 (antibody, V domains shown)
VH: B1 VH with D31S, G33S, S49A, N50G, T58K
VL: B1 VL with T31S, R54L, Y92D, D93S
notes: Group III

- optical density (human ACVR2A): 2.46 OD
- optical density (mouse ACVR2A): 3.13 OD
- optical density [1]: 2.27 OD
B11: 371_B04 (antibody, V domains shown)
VH: B1 VH with D31S, G33S, N50G, T58K
VL: B1 VL with T31S, L47V, A51V, A55H
notes: Group III

- optical density (human ACVR2A): 2 OD
- optical density (mouse ACVR2A): 2.27 OD
- optical density [1]: 3.59 OD
B12: 371_C01 (antibody, V domains shown)
VH: B1 VH with D31S, N35H, N50S, S59G, A106H
VL: B1 VL with L30V, T31S, A55H, S94N
notes: Group III

- optical density (human ACVR2A): 2.05 OD
- optical density (mouse ACVR2A): 2.25 OD
- optical density [1]: 3.45 OD
B13: 371_C04 (antibody, V domains shown)
VH: B1 VH with S30D, D31S, N50G, G55S, T58K, S59G
VL: B1 VL with T31S, D93S, S94T
notes: Group III

- optical density (human ACVR2A): 3.3 OD
- optical density (mouse ACVR2A): 3.39 OD
- optical density [1]: 3.67 OD
B14: 370_H02 (antibody, V domains shown)
VH: B1 VH with S30D, D31S, G33S, N50G, G55S, A106H
VL: B1 VL with D93E
notes: Group III

- optical density (human ACVR2A): 3.1 OD
- optical density (mouse ACVR2A): 3.2 OD
- optical density [1]: 3.68 OD
B15: 371_C12 (antibody, V domains shown)
VH: B1 VH with D31S, G33S, S49A, N50G, G55S, T58K, A106H
VL: B1 VL with L30V, T31S, L33V, S94T
notes: Group III

- optical density (human ACVR2A): 1.14 OD
- optical density (mouse ACVR2A): 1.25 OD
- optical density [1]: 3.3 OD
B16: 370_F03 (antibody, V domains shown)
VH: B1 VH with D31S, N50S, G55S, T58K
VL: B1 VL with T31S, L33V, D93E, S94N
notes: Group III

- optical density (human ACVR2A): 2.81 OD
- optical density (mouse ACVR2A): 2.78 OD
- optical density [1]: 3.48 OD
B17: 371_A10 (antibody, V domains shown)
VH: B1 VH with S30D, G33S, N50G, T58K, S59G
VL: B1 VL with L30V, T31S, L47V, D93E, S94N
notes: Group III

- optical density (human ACVR2A): 2.08 OD
- optical density (mouse ACVR2A): 2.45 OD
- optical density [1]: 3.69 OD
B18: 370_B11 (antibody, V domains shown)
VH: B1 VH with S30D, D31S, G33S, N50G, G55S, A106H
VL: B1 VL with T31S, L47V, A55H, S91G, S94L
notes: Group III

- optical density (human ACVR2A): 3.09 OD
- optical density (mouse ACVR2A): 3.35 OD
- optical density [1]: 3.44 OD
B19: 371_E07 (antibody, V domains shown)
VH: B1 VH with S30D, D31S, G33S, S49A, N50G
VL: B1 VL with L30I, T31S, R54L, D93E
notes: Group III

- optical density (human ACVR2A): 0.825 OD
- optical density (mouse ACVR2A): 0.827 OD
- optical density [1]: 2.7 OD
B20: 371_B09 (antibody, V domains shown)
VH: B1 VH with D31S, G33S, S49A, N50G, G55S, S59G, A106H
VL: B1 VL with T31S, L33V, L47V, A51T, R54L, S94T
notes: Group III

- optical density (human ACVR2A): 3 OD
- optical density (mouse ACVR2A): 3.03 OD
- optical density [1]: 3.44 OD
B21: 371_E06 (antibody, V domains shown)
VH: B1 VH with D31S, G33S, N50G
VL: B1 VL with L30S, A51V, R54L, A55H, D93E
notes: Group III

- optical density (human ACVR2A): 2.56 OD
- optical density (mouse ACVR2A): 2.4 OD
- optical density [1]: 3.48 OD
B22: 371_B12 (antibody, V domains shown)
VH: B1 VH with G33S, S49A, N50G, G55S
VL: B1 VL with L30V, L47V, A55H, D93N, S94N
notes: Group III

- optical density (human ACVR2A): 3.3 OD
- optical density (mouse ACVR2A): 3.49 OD
- optical density [1]: 3.58 OD
B23: 369_G08 (antibody, V domains shown)
VH: B1 VH with S30D, D31S, G33S, N50S, T58K, S59G, A106H
VL: not shown
notes: Group III

- optical density (human ACVR2A): 3.06 OD
- optical density (mouse ACVR2A): 3.05 OD
- optical density [1]: 3.49 OD
B24: 371_E10 (antibody, V domains shown)
VH: B1 VH with S30D, D31S, G33S, S49A, N50G
VL: B1 VL with L30S, A51V, D93N
notes: Group III

- optical density (human ACVR2A): 2.92 OD
- optical density (mouse ACVR2A): 3.08 OD
- optical density [1]: 3.56 OD
B25: 370_B12 (antibody, V domains shown)
VH: B1 VH with G33S, N50G, T58K, S59G
VL: B1 VL with T31S, L33V, L47V, A51T, D93E, S94T
notes: Group III

- optical density (human ACVR2A): 3.13 OD
- optical density (mouse ACVR2A): 3.11 OD
- optical density [1]: 3.52 OD
B26: 369_E06 (antibody, V domains shown)
VH: B1 VH with D31S, N50G
VL: B1 VL with L30I, T31S, L47V, A55H
notes: Group III
